Reference: PMC7316351, “Cancer-associated mutations in the iron-sulfur domain of FANCJ affect G-quadruplex metabolism”
Changes are numbered by the printed parent chain.

What was measured:
[1] = target: T1, FANCJ K52R (UniProt Q9BX63 1-1249, K52R); test: EMSA; 10/40/70 nM protein, 5 nM DNA, no ATP; EMSA: 15 mM Na-phosphate pH 7.4, 45 mM NaCl, 3% glycerol, 40 mM Tris-HCl pH 7.4, 25 mM KCl, 100 ng/ul BSA, 2 mM DTT, 0.1 mM EDTA; 30 min at 25 C; 5% PAGE in 1x; settings: protein: recombinant; tags: N-terminal Flag; label: 5'-FAM on strand 1
T1 sequence: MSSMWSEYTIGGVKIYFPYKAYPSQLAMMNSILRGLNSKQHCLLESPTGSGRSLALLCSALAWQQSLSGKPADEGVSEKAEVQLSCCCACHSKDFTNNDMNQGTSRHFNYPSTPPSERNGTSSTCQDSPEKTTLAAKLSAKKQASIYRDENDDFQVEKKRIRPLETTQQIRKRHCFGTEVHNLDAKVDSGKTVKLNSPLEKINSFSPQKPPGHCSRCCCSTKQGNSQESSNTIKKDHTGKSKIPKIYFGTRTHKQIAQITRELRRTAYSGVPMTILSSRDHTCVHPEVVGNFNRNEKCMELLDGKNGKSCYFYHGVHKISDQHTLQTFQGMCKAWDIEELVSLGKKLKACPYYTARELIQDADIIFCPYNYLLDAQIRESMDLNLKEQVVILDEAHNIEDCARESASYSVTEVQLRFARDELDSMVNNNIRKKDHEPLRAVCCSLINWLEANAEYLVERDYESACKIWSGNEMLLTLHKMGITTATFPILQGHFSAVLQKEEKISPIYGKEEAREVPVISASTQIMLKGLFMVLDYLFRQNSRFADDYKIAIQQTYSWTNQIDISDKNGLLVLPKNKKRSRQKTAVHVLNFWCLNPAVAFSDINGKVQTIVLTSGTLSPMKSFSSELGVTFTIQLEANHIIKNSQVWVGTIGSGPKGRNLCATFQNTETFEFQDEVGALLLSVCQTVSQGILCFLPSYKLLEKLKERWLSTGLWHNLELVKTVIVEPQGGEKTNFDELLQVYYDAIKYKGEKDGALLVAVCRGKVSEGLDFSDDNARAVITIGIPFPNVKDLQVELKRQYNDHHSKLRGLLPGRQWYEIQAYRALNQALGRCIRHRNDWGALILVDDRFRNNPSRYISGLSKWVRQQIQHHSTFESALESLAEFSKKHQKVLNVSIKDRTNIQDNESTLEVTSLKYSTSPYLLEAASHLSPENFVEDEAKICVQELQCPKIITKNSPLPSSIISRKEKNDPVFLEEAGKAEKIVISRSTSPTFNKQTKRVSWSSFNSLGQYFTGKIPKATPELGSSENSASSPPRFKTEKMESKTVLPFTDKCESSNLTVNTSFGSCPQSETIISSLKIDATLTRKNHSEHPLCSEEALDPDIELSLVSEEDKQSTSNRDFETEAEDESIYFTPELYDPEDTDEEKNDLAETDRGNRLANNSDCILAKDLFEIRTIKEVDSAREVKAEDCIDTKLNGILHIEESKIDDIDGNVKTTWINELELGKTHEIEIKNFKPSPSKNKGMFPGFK

[2] = target: T2, FANCJ M299I (UniProt Q9BX63 1-1249, M299I); test: EMSA; 10/40/70 nM protein, 5 nM DNA, no ATP; wild-type level of binding; EMSA: 15 mM Na-phosphate pH 7.4, 45 mM NaCl, 3% glycerol, 40 mM Tris-HCl pH 7.4, 25 mM KCl, 100 ng/ul BSA, 2 mM DTT, 0.1 mM EDTA; 30 min at 25 C; 5% PAGE in 1x; settings: protein: recombinant; tags: N-terminal Flag; label: 5'-FAM on strand 1
T2 sequence: T1 sequence with R52K, M299I

B1: Y-structure (XO1/sDO1) (dsDNA)
DNA 1: GACGCTGCCGAATTCTACCAGTGCCTTGCTAGGACATCTTTG
DNA 2: TTTTTTTTTTTTTTTTTTTTTTTTTTTTTTTTTTTTGGTAGAATTCGGCAGCGT
[1]
  binding result: binds
[2]
  binding result: binds
